Biological target: T1, hRpn13_ΔMTT (Homo sapiens, UniProt Q16186)
T1 construct: recombinant plasmid of hRpn13 Pru (1–150) cloned into the pRSET vector; GST (N, cleaved yes); residual Gly-Ser (^cG-^dS) left after cleavage; made in house; host or cells: Escherichia coli BL21 (DE3); pGEX-4T-1 plasmid synthesized by GenScript (Addgene 237412)
Test: 1H-15N HSQC NMR, K48-diUb constructs with hRpn13_ΔMTT
Assay type: binding
Conditions: for ubiquitin contact surface binding (HSQC): varying K48-diUb concentrations
Description: To test further whether peptide binding can influence hRpn13 Pru interaction with ubiquitin, we generated K48-linked diubiquitin in which the distal moiety (linked via G76) is extended by a 6-residue linker sequence of GSGGSG followed by either the ENT (K48-diUb^ENT) or EDGEGEE (K48-diUb^EDGEGEE) sequence. Varying concentrations of K48-diUb^ENT, K48-diUb^EDGEGEE, or K48-diUb^D77 were added to 100 μM ^15N-labeled hRpn13_ΔMTT and effects on hRpn13 monitored by recording ^1H-^15N HSQC spectra.
K48-diUb samples were produced by using a similar method as previously described. Briefly, Ub-D77 (proximal), Ub-ENT (proximal), Ub-EDGEGEE (proximal) and Ub-K48R (distal) were added at a final concentration of 0.8 mM to a reaction buffer (50 mM Tris pH 8.0, 5 mM MgCl2, 10 mM creatine phosphate, 0.6 U/mL inorg. PPase, 0.6 U/mL creatine kinase, 2 mM ATP) preincubated with 20 μM E2-25K. 0.1 μM E1 (R&D Systems) was added to this reaction system to initiate diUb synthesis, and it was left for 18 h at 37 °C. The reaction was quenched by dilution with 4 volumes of 50 mM sodium acetate (pH 4.5) and passed over a Mono S 5/50 GL column (GE Healthcare). Further purification was achieved by SEC on a HiLoad 16/600 Superdex 75 prep grade column (GE Healthcare) in buffer C.
All ^1H-^15N HSQC experiments were acquired on samples dissolved in NMR buffer (20 mM sodium phosphate, pH 6.5, 50 mM NaCl, 1 mM TCEP, 10% D2O) unless specified, in which case 2 mM DTT replaced TCEP. The samples were purified in DTT-containing buffer and then exchanged into NMR buffer by using Zeba Protein Desalting columns (Thermo Fisher Scientific). The pH was measured and adjusted to 6.5. All NMR experiments were performed at 25 °C on a Bruker Advance 600 MHz spectrometer equipped with a cryogenically cooled probe. The data were processed by NMRpipe[46] (version 11.5) and spectra visualized and analyzed with NMR-FAM-SPARKY[47] (version 3.190) by using previous chemical shift assignments[12],[23] and NMRbox[48]. The amide nitrogen and hydrogen chemical shift perturbations (CSP) were mapped for each amino acid according to Eq. 1.1 CSP=0.2ΔδN2+ΔδH2
Supplementary Figure 13: NMR experiments of hRpn13 Pru binding to K48-diUb^EDGEGEE, K48-diUb^ENT or K48-diUb^D77. a) ^1H-^15N HSQC spectrum of 0.1 mM ^15N-labeled hRpn13_ΔMTT alone (black) or with equimolar K48-diUb^EDGEGEE (blue), K48-diUb^ENT (red) or K48-diUb^D77 (green). Select residues are labeled. The spectra were acquired on a 600 MHz spectrometer equipped with a cryogenically cooled probe and at 25°C samples with samples dissolved in 20 mM sodium phosphate, pH 6.5, 100 mM NaCl, 1 mM TCEP, 10% D2O.

T1 sequence (Q16186 4-150, stated change not applied): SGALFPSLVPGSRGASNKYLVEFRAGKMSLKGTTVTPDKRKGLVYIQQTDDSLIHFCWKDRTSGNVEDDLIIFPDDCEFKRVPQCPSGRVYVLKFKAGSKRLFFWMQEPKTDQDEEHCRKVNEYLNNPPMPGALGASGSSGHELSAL

| Substance | ubiquitin contact surface binding (HSQC) (100 μM 15N-hRpn13_ΔMTT) | bound state hRpn13 F76 signal (100 μM 15N-hRpn13_ΔMTT) | strength of complex with hRpn13 (HSQC) (100 μM 15N-hRpn13_ΔMTT) | hRpn13 D78, A100, and G101 signal shifting compared to K48-diUb^D77 (sub-stoichiometric K48-diUb concentrations) |
| --- | --- | --- | --- | --- |
| K48-diUb^D77: K48-linked diubiquitin from Ub-D77 (proximal) and Ub-K48R (distal) [reference compound] | binding to ubiquitin was observed | – | – | – |
| K48-diUb^EDGEGEE: K48-linked diubiquitin extended by linker GSGGSG followed by EDGEGEE | binding to ubiquitin was observed | A bound state hRpn13 signal was only observed for K48-diUb^EDGEGEE | stronger complex with hRpn13 compared to K48-diUb^ENT or K48-diUb^D77 | more pronounced shifting at sub-stoichiometric concentrations |
